{"source": "patent US20120316071A1", "about": "(published 2012)", "binders": {"B1": {"name": "Fab VH5-51_IGHD5-18*01>3_IGHJ4*01 G100K/G104T G24T/S28R/G35V (H:KT TRV) & V3-4_IGLJ1*01 V91N (Fab, V domains shown)", "VH": "EVQLVQSGAEVKKPGESLKISCKTSGYRFTSYWIVWVRQMPGKGLEWMGIIYPGDSDTRYSPSFQGQVTISADKSISTAYLQWSSLKASDTAMYYCARRKYSYTYDYFDYWGQGTLVTVSS", "VL": "QTVVTQEPSFSVSPGGTVTLTCGLSSGSVSTSYYPSWYQQTPGQAPRTLIYSTNTRSSGVPDRFSGSILGNKAALTITGAQADDESDYYCNLYMGSGISYVFGTGTKVTVL", "notes": "Fab; expressed from plasmid A (CH1, His6 and Flag tags) and plasmid E (lambda CL)"}, "B2": {"name": "Fab VH5-51_IGHD5-18*01>3_IGHJ4*01 G100K/G104T G24T/S28R/G35V (H:KT TRV) & V3-4_IGLJ1*01 T78E (Fab, V domains shown)", "VH": "B1 VH", "VL": "B1 VL with T78E, N91V", "notes": "Fab; expressed in E. coli with CH1 (Plasmid A, His6 and Flag tags) and lambda CL (Plasmid E); also called H:KT TRV & T78E"}, "B3": {"name": "Fab VH5-51_IGHD5-18*01>3_IGHJ4*01 G100K/G104T G24T/S28R/G35V (H:KT TRV) & V3-4_IGLJ1*01 T55A (Fab, V domains shown)", "VH": "B1 VH", "VL": "B1 VL with T55A, N91V", "notes": "as for B1"}, "B4": {"name": "Fab VH5-51_IGHD5-18*01>3_IGHJ4*01 G100K/G104T G24T/S28R/G35V (H:KT TRV) & V3-4_IGLJ1*01 T78V (Fab, V domains shown)", "VH": "B1 VH", "VL": "B1 VL with T78V, N91V", "notes": "Fab; expressed in E. coli with CH1 (Plasmid A, His6 and Flag tags) and lambda CL (Plasmid E); also called H:KT TRV & T78V"}, "B5": {"name": "Fab VH5-51_IGHD5-18*01>3_IGHJ4*01 G100K/G104T G24T/S28R/G35V (H:KT TRV) & V3-4_IGLJ1*01 S52A (Fab, V domains shown)", "VH": "B1 VH", "VL": "B1 VL with S52A, N91V", "notes": "Fab; expressed in E. coli with CH1 (Plasmid A, His6 and Flag tags) and lambda CL (Plasmid E); also called H:KT TRV & S52A"}, "B6": {"name": "Fab VH5-51_IGHD5-18*01>3_IGHJ4*01 G100K/G104T G24T/S28R/G35V (H:KT TRV) & V3-4_IGLJ1*01 Y33A (Fab, V domains shown)", "VH": "B1 VH", "VL": "B1 VL with Y33A, N91V", "notes": "Fab; expressed in E. coli with CH1 (Plasmid A, His6 and Flag tags) and lambda CL (Plasmid E); also called H:KT TRV & Y33A"}, "B7": {"name": "Fab VH5-51_IGHD5-18*01>3_IGHJ4*01 G100K/G104T G24T/S28R/G35V (H:KT TRV) & V3-4_IGLJ1*01 S96W (Fab, V domains shown)", "VH": "B1 VH", "VL": "B1 VL with N91V, S96W", "notes": "as for B1"}, "B8": {"name": "Fab VH5-51_IGHD5-18*01>3_IGHJ4*01 G100K/G104T G24T/S28R/G35V (H:KT TRV) & V3-4_IGLJ1*01 I98A (Fab, V domains shown)", "VH": "B1 VH", "VL": "B1 VL with N91V, I98A", "notes": "Fab; expressed in E. coli with CH1 (Plasmid A, His6 and Flag tags) and lambda CL (Plasmid E); also called H:KT TRV & I98A"}, "B9": {"name": "Fab VH5-51_IGHD5-18*01>3_IGHJ4*01 G100K/G104T G24T/S28R/G35V (H:KT TRV) & V3-4_IGLJ1*01 T53A (Fab, V domains shown)", "VH": "B1 VH", "VL": "B1 VL with T53A, N91V", "notes": "Fab; expressed in E. coli with CH1 (Plasmid A, His6 and Flag tags) and lambda CL (Plasmid E); also called H:KT TRV & T53A"}, "B10": {"name": "Fab VH5-51_IGHD5-18*01>3_IGHJ4*01 G100K/G104T G24T/S28R/G35V (H:KT TRV) & V3-4_IGLJ1*01 S26A (Fab, V domains shown)", "VH": "B1 VH", "VL": "B1 VL with S26A, N91V", "notes": "Fab; expressed in E. coli with CH1 (Plasmid A, His6 and Flag tags) and lambda CL (Plasmid E); also called H:KT TRV & S26A"}, "B11": {"name": "Fab VH5-51_IGHD5-18*01>3_IGHJ4*01 G100K/G104T G24T/S28R/G35V (H:KT TRV) & V3-4_IGLJ1*01 S32A (Fab, V domains shown)", "VH": "B1 VH", "VL": "B1 VL with S32A, N91V", "notes": "Fab; expressed in E. coli with CH1 (Plasmid A, His6 and Flag tags) and lambda CL (Plasmid E); also called H:KT TRV & S32A"}, "B12": {"name": "Fab VH5-51_IGHD5-18*01>3_IGHJ4*01 G100K/G104T G24T/S28R/G35V (H:KT TRV) & V3-4_IGLJ1*01 V91A (Fab, V domains shown)", "VH": "B1 VH", "VL": "B1 VL with N91A", "notes": "Fab; expressed in E. coli with CH1 (Plasmid A, His6 and Flag tags) and lambda CL (Plasmid E); also called H:KT TRV & V91A"}, "B13": {"name": "Fab VH5-51_IGHD5-18*01>3_IGHJ4*01 G100K/G104T G24T/S28R/G35V (H:KT TRV) & V3-4_IGLJ1*01 V91L (Fab, V domains shown)", "VH": "B1 VH", "VL": "B1 VL with N91L", "notes": "as for B1"}, "B14": {"name": "Fab VH5-51_IGHD5-18*01>3_IGHJ4*01 G100K/G104T G24T/S28R/G35V (H:KT TRV) & V3-4_IGLJ1*01 V91S (Fab, V domains shown)", "VH": "B1 VH", "VL": "B1 VL with N91S", "notes": "as for B1"}, "B15": {"name": "Fab VH5-51_IGHD5-18*01>3_IGHJ4*01 G100K/G104T G24T/S28R/G35V (H:KT TRV) & V3-4_IGLJ1*01 S96A (Fab, V domains shown)", "VH": "B1 VH", "VL": "B1 VL with N91V, S96A", "notes": "Fab; expressed in E. coli with CH1 (Plasmid A, His6 and Flag tags) and lambda CL (Plasmid E); also called H:KT TRV & S96A"}, "B16": {"name": "Fab VH5-51_IGHD5-18*01>3_IGHJ4*01 G100K/G104T G24T/S28R/G35V (H:KT TRV) & V3-4_IGLJ1*01 V91I (Fab, V domains shown)", "VH": "B1 VH", "VL": "B1 VL with N91I", "notes": "as for B1"}, "B17": {"name": "Fab VH5-51_IGHD5-18*01>3_IGHJ4*01 G100K/G104T G24T/S28R/G35V (H:KT TRV) & V3-4_IGLJ1*01 V91G (Fab, V domains shown)", "VH": "B1 VH", "VL": "B1 VL with N91G", "notes": "as for B1"}, "B18": {"name": "Fab VH5-51_IGHD5-18*01>3_IGHJ4*01 G100K/G104T G24T/S28R/G35V (H:KT TRV) & V3-4_IGLJ1*01 G95A (Fab, V domains shown)", "VH": "B1 VH", "VL": "B1 VL with N91V, G95A", "notes": "Fab; expressed in E. coli with CH1 (Plasmid A, His6 and Flag tags) and lambda CL (Plasmid E); also called H:KT TRV & G95A"}, "B19": {"name": "Fab VH5-51_IGHD5-18*01>3_IGHJ4*01 G100K/G104T G24T/S28R/G35V (H:KT TRV) & V3-4_IGLJ1*01 V91C (Fab, V domains shown)", "VH": "B1 VH", "VL": "B1 VL with N91C", "notes": "as for B1"}, "B20": {"name": "Fab VH5-51_IGHD5-18*01>3_IGHJ4*01 G100K/G104T G24T/S28R/G35V (H:KT TRV) & V3-4_IGLJ1*01 L92A (Fab, V domains shown)", "VH": "B1 VH", "VL": "B1 VL with N91V, L92A", "notes": "Fab; expressed in E. coli with CH1 (Plasmid A, His6 and Flag tags) and lambda CL (Plasmid E); also called H:KT TRV & L92A"}, "B21": {"name": "Fab VH5-51_IGHD5-18*01>3_IGHJ4*01 G100K/G104T G24T/S28R/G35V (H:KT TRV) & V3-4_IGLJ1*01 P35A (Fab, V domains shown)", "VH": "B1 VH", "VL": "B1 VL with P35A, N91V", "notes": "Fab; expressed in E. coli with CH1 (Plasmid A, His6 and Flag tags) and lambda CL (Plasmid E); also called H:KT TRV & P35A"}, "B22": {"name": "Fab VH5-51_IGHD5-18*01>3_IGHJ4*01 G100K/G104T G24T/S28R/G35V (H:KT TRV) & V3-4_IGLJ1*01 Y34A (Fab, V domains shown)", "VH": "B1 VH", "VL": "B1 VL with Y34A, N91V", "notes": "Fab; expressed in E. coli with CH1 (Plasmid A, His6 and Flag tags) and lambda CL (Plasmid E); also called H:KT TRV & Y34A"}, "B23": {"name": "Fab VH5-51_IGHD5-18*01>3_IGHJ4*01 G100K/G104T G24T/S28R/G35V (H:KT TRV) & V3-4_IGLJ1*01 G23A (Fab, V domains shown)", "VH": "B1 VH", "VL": "B1 VL with G23A, N91V", "notes": "Fab; expressed in E. coli with CH1 (Plasmid A, His6 and Flag tags) and lambda CL (Plasmid E); also called H:KT TRV & G23A"}}, "key": {"[1]": {"target": "T1, Recombinant Human DLL4 (human, UniProt Q9NR61 27-524)", "T1 construct": "Bought recombinant human DLL4 (R&D Systems Cat#1506-D4/CF); also called delta-like protein 4; Delta-like 4", "assay": "ELISA, DLL4 coated on the plate, Fab at 100 nM, signal minus blank"}, "[2]": {"target": "T2, Recombinant Human DLL4 (human, UniProt Q9NR61 27-524)", "T2 construct": "also called delta-like protein 4; rHuman DLL4", "assay": "ELISA, DLL4 coated on plate, Fab at 100 nM, absorbance at 450 nm minus blank"}}, "note": "Substitutions are numbered along the chain they refer to. In names and notes the source's numbering stands.", "data": [{"binder": "B1", "values": [{"measurement": "ELISA Signal-blank (100 nM Fab)", "setting": "[1]", "result": 0.203}]}, {"binder": "B2", "values": [{"measurement": "ELISA Signal-blank (100 nM Fab)", "setting": "[2]", "result": 0.217}]}, {"binder": "B3", "values": [{"measurement": "ELISA Signal-blank (100 nM Fab)", "setting": "[1]", "result": 0.382}]}, {"binder": "B4", "values": [{"measurement": "ELISA Signal-blank (100 nM Fab)", "setting": "[2]", "result": 0.34}]}, {"binder": "B5", "values": [{"measurement": "ELISA Signal-blank (100 nM Fab)", "setting": "[2]", "result": 0.574}]}, {"binder": "B6", "values": [{"measurement": "ELISA Signal-blank (100 nM Fab)", "setting": "[2]", "result": 0.301}]}, {"binder": "B7", "values": [{"measurement": "ELISA Signal-blank (100 nM Fab)", "setting": "[1]", "result": 0.261}]}, {"binder": "B8", "values": [{"measurement": "ELISA Signal-blank (100 nM Fab)", "setting": "[2]", "result": 0.162}]}, {"binder": "B9", "values": [{"measurement": "ELISA Signal-blank (100 nM Fab)", "setting": "[2]", "result": 0.532}]}, {"binder": "B10", "values": [{"measurement": "ELISA Signal-blank (100 nM Fab)", "setting": "[2]", "result": 0.395}]}, {"binder": "B11", "values": [{"measurement": "ELISA Signal-blank (100 nM Fab)", "setting": "[2]", "result": 0.502}]}, {"binder": "B12", "values": [{"measurement": "ELISA Signal-blank (100 nM Fab)", "setting": "[2]", "result": 0.606}]}, {"binder": "B13", "values": [{"measurement": "ELISA Signal-blank (100 nM Fab)", "setting": "[1]", "result": 0.734}]}, {"binder": "B14", "values": [{"measurement": "ELISA Signal-blank (100 nM Fab)", "setting": "[1]", "result": 0.264}]}, {"binder": "B15", "values": [{"measurement": "ELISA Signal-blank (100 nM Fab)", "setting": "[2]", "result": 0.436}]}, {"binder": "B16", "values": [{"measurement": "ELISA Signal-blank (100 nM Fab)", "setting": "[1]", "result": 0.336}]}, {"binder": "B17", "values": [{"measurement": "ELISA Signal-blank (100 nM Fab)", "setting": "[1]", "result": 0.248}]}, {"binder": "B18", "values": [{"measurement": "ELISA Signal-blank (100 nM Fab)", "setting": "[2]", "result": 0.216}]}, {"binder": "B19", "values": [{"measurement": "ELISA Signal-blank (100 nM Fab)", "setting": "[1]", "result": 0.625}]}, {"binder": "B20", "values": [{"measurement": "ELISA Signal-blank (100 nM Fab)", "setting": "[2]", "result": 0.186}]}, {"binder": "B21", "values": [{"measurement": "ELISA Signal-blank (100 nM Fab)", "setting": "[2]", "result": 0.236}]}, {"binder": "B22", "values": [{"measurement": "ELISA Signal-blank (100 nM Fab)", "setting": "[2]", "result": 0.085}]}, {"binder": "B23", "values": [{"measurement": "ELISA Signal-blank (100 nM Fab)", "setting": "[2]", "result": 0.405}]}]}
